Test results reported in IntAct's records for PubMed 9528782.

B1: DBF2 kinase activator protein MOB1 (Saccharomyces cerevisiae), P40484 (parent)
chain: MSFLQNFHISPGQTIRSTRGFKWNTANAANNAGSVSPTKATPHNNTINGNNNNANTINNRADFTNNPVNGYNESDHGRMSPVLTTPKRHAPPPEQLQNVTDFNYTPSHQKPFLQPQAGTTVTTHQDIKQIVEMTLGSEGVLNQAVKLPRGEDENEWLAVHCVDFYNQINMLYGSITEFCSPQTCPRMIATNEYEYLWAFQKGQPPVSVSAPKYVECLMRWCQDQFDDESLFPSKVTGTFPEGFIQRVIQPILRRLFRVYAHIYCHHFNEILELNLQTVLNTSFRHFCLFAQEFELLRPADFGPLLELVMELRDR
partner: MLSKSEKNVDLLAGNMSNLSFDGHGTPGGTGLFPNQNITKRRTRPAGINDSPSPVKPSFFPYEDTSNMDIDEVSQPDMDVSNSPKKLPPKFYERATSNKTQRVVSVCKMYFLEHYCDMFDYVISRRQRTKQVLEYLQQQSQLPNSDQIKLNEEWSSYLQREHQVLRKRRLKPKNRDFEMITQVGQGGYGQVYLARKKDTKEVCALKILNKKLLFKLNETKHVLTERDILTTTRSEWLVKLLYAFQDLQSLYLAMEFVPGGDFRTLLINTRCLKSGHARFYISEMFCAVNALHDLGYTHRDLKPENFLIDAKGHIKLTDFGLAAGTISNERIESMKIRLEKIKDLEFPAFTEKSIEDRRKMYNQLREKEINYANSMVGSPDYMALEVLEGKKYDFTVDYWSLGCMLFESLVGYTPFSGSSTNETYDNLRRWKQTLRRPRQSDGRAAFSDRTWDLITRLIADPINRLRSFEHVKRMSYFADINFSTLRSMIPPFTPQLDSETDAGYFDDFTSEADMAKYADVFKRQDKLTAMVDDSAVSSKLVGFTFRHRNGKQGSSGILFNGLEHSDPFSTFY
B2: DBF2 kinase activator protein MOB1 (Saccharomyces cerevisiae), P40484 (parent)
chain: B1 chain
partner: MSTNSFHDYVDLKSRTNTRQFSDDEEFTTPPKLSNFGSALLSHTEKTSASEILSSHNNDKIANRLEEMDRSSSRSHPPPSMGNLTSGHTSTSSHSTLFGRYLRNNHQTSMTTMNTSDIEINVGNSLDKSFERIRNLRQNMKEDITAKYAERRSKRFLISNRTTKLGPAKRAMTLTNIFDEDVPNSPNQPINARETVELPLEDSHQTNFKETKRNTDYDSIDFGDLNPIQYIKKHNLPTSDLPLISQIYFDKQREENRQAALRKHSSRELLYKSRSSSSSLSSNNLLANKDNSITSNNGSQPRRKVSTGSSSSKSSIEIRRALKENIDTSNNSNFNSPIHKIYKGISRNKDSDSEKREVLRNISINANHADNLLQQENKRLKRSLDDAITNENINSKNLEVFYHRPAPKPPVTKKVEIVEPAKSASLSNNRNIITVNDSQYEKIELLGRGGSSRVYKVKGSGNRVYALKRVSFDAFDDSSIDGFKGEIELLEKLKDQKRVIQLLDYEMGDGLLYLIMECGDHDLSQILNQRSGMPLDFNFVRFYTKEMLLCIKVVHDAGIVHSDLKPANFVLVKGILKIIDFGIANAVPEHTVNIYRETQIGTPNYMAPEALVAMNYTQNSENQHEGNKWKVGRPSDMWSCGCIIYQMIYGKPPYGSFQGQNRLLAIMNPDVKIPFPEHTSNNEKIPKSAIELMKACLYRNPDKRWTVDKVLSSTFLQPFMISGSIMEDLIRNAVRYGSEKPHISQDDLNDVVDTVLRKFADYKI
B3: DBF2 kinase activator protein MOB1 (Saccharomyces cerevisiae), P40484 (parent)
chain: B1 chain
partner: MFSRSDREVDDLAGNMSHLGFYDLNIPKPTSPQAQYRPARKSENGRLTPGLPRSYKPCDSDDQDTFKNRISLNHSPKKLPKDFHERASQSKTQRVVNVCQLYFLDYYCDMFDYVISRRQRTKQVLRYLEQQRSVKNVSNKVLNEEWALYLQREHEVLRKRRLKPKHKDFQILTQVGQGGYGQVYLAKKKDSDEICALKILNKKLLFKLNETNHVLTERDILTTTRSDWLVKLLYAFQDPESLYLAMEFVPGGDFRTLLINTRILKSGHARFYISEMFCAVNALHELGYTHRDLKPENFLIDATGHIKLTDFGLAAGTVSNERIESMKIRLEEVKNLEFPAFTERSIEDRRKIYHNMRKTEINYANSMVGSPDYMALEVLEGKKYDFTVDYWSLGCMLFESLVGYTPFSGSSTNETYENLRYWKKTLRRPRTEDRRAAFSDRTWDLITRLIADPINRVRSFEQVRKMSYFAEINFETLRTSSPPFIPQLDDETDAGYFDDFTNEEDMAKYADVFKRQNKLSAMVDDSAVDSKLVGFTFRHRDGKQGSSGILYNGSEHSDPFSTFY

Variants of: B1
Conditions: with dbf2_yeast DBF2, P22204

Row | effect of a mutation on the interaction | Variant
1 | disrupting interaction strength | MSFLQNFHISPGQTIRSTRGFKWNTANAANNAGSVSPTKATPHNNTINGNNNNANTINNRADFTNNPVNGYNESDHGRMSPVLTTPKRHAPPPEQLQNVTDFNYTPSHQKPFLQPQAGTTVTTHQDIKQIVEMTLGSEGVLNQAVKLPRGEDENEWPIVHCVDFYNQINMLYGSITEFCSPQTCPRMIATNEYEYLWAFQKGQPPVSVSAPKYVECLMRWCQDQFDDESLFPSKVTGTFPEGFIQRVIQPILRRLFRVYAHIYCHHFNEILELNLQTVLNTSFRHFCLFAQEFELLRPADFGPLLELVMELRDR [L157P;A158I]
2 | decreasing interaction strength | MSFLQNFHISPGQTIRSTRGFKWNTANAANNAGSVSPTKATPHNNTINGNNNNANTINNRADFTNNPVNGYNESDHGRMSPVLTPPKRHAPPPEQLQNVTDFNYTPSHQKPFLQPQAGTTVTTHQDIKQIVEMTLGSEGVLNQAVKLPRGEDENEWLAVHCVDFYNRINMLYGSITEFCSPQHCPRMIATNEYEYLWAFQKGQPPVSVSAPKYVECLMRWCQDQFDDESLFPSKVTGTFPEGFIQRVIQPILRRLFRVYAHIYCHHFNEILELNLQTVLNTSFRHFCLFAQEFELLRPADFGPLLELVMELRDR [T85P;Q167R;T183H]
3 | disrupting interaction strength | MSFLQNFHISPGQTIRSTRGFKWNTANAANNAGSVSPTKATPHNNTINGNNNNANTINNRADFTNNPVNGYNESDHGRMSPVLTTPKRHAPPPEQLQNVTDFNYTPSHQKPFLQPQAGTTVTTHQDIKQIVEMTLGSEGVLNQAVKLPRGKDENEWLAVHCVDFYNQINMLYGSITEFCSPQTCPRMIATNEYEYLWAFQKGQPPVSVSAPKYVECLMRWCQDQFDDESLFPSKVTGTFPEGFIQRVIQPILRRLFRVYAHIYCHHFNEILELNLQTVLNTSFRHFCLFAQEFELLRPADFGPLLELVMELRDR [E151K]

Variants of: B2
Conditions: with mps1_yeast MPS1, P54199

Row | effect of a mutation on the interaction | Variant
4 | decreasing interaction strength | MSFLQNFHISPGQTIRSTRGFKWNTANAANNAGSVSPTKATPHNNTINGNNNNANTINNRADFTNNPVNGYNESDHGRMSPVLTPPKRHAPPPEQLQNVTDFNYTPSHQKPFLQPQAGTTVTTHQDIKQIVEMTLGSEGVLNQAVKLPRGEDENEWLAVHCVDFYNRINMLYGSITEFCSPQHCPRMIATNEYEYLWAFQKGQPPVSVSAPKYVECLMRWCQDQFDDESLFPSKVTGTFPEGFIQRVIQPILRRLFRVYAHIYCHHFNEILELNLQTVLNTSFRHFCLFAQEFELLRPADFGPLLELVMELRDR [T85P;Q167R;T183H]
5 | with no effect | MSFLQNFHISPGQTIRSTRGFKWNTANAANNAGSVSPTKATPHNNTINGNNNNANTINNRADFTNNPVNGYNESDHGRMSPVLTTPKRHAPPPEQLQNVTDFNYTPSHQKPFLQPQAGTTVTTHQDIKQIVEMTLGSEGVLNQAVKLPRGKDENEWLAVHCVDFYNQINMLYGSITEFCSPQTCPRMIATNEYEYLWAFQKGQPPVSVSAPKYVECLMRWCQDQFDDESLFPSKVTGTFPEGFIQRVIQPILRRLFRVYAHIYCHHFNEILELNLQTVLNTSFRHFCLFAQEFELLRPADFGPLLELVMELRDR [E151K]
6 | with no effect | MSFLQNFHISPGQTIRSTRGFKWNTANAANNAGSVSPTKATPHNNTINGNNNNANTINNRADFTNNPVNGYNESDHGRMSPVLTTPKRHAPPPEQLQNVTDFNYTPSHQKPFLQPQAGTTVTTHQDIKQIVEMTLGSEGVLNQAVKLPRGEDENEWPIVHCVDFYNQINMLYGSITEFCSPQTCPRMIATNEYEYLWAFQKGQPPVSVSAPKYVECLMRWCQDQFDDESLFPSKVTGTFPEGFIQRVIQPILRRLFRVYAHIYCHHFNEILELNLQTVLNTSFRHFCLFAQEFELLRPADFGPLLELVMELRDR [L157P;A158I]

Variants of: B3
Conditions: with dbf20_yeast DBF20, P32328

Row | effect of a mutation on the interaction | Variant
7 | disrupting interaction strength | MSFLQNFHISPGQTIRSTRGFKWNTANAANNAGSVSPTKATPHNNTINGNNNNANTINNRADFTNNPVNGYNESDHGRMSPVLTTPKRHAPPPEQLQNVTDFNYTPSHQKPFLQPQAGTTVTTHQDIKQIVEMTLGSEGVLNQAVKLPRGKDENEWLAVHCVDFYNQINMLYGSITEFCSPQTCPRMIATNEYEYLWAFQKGQPPVSVSAPKYVECLMRWCQDQFDDESLFPSKVTGTFPEGFIQRVIQPILRRLFRVYAHIYCHHFNEILELNLQTVLNTSFRHFCLFAQEFELLRPADFGPLLELVMELRDR [E151K]
8 | disrupting interaction strength | MSFLQNFHISPGQTIRSTRGFKWNTANAANNAGSVSPTKATPHNNTINGNNNNANTINNRADFTNNPVNGYNESDHGRMSPVLTTPKRHAPPPEQLQNVTDFNYTPSHQKPFLQPQAGTTVTTHQDIKQIVEMTLGSEGVLNQAVKLPRGEDENEWPIVHCVDFYNQINMLYGSITEFCSPQTCPRMIATNEYEYLWAFQKGQPPVSVSAPKYVECLMRWCQDQFDDESLFPSKVTGTFPEGFIQRVIQPILRRLFRVYAHIYCHHFNEILELNLQTVLNTSFRHFCLFAQEFELLRPADFGPLLELVMELRDR [L157P;A158I]
9 | disrupting interaction strength | MSFLQNFHISPGQTIRSTRGFKWNTANAANNAGSVSPTKATPHNNTINGNNNNANTINNRADFTNNPVNGYNESDHGRMSPVLTPPKRHAPPPEQLQNVTDFNYTPSHQKPFLQPQAGTTVTTHQDIKQIVEMTLGSEGVLNQAVKLPRGEDENEWLAVHCVDFYNRINMLYGSITEFCSPQHCPRMIATNEYEYLWAFQKGQPPVSVSAPKYVECLMRWCQDQFDDESLFPSKVTGTFPEGFIQRVIQPILRRLFRVYAHIYCHHFNEILELNLQTVLNTSFRHFCLFAQEFELLRPADFGPLLELVMELRDR [T85P;Q167R;T183H]
